Where a chain is given by its changes, count along the chain named. Read-outs that look alike come from different tables or passages of the source.
B1: chimeric antibody xi28G3 (antibody, human IgG1, kappa, V domains shown)
VH: EIQLQQTGPELVKPGASVTISCKTSGYSFTDYLMLWVKQSHGKSLEWIGNINPYYGRTTYNLKFKGKATLTVDRSSSTAYMQLNSLTSEDSAVYYCARDGYSLRNAMDYWGQGTSVTVSS
VL: DIVMTQSPYSLSVSTGEKVTMSCKSSQSLFNSGNQKNYLAWYQQKPGQPPKLLIYGASTRESGVPDRFTGSGSGTDFTLTISSVQAEDLALYYCQNAHSYPYTFGGGTKLEIKR
notes: Mouse variable regions on human IgG1/kappa; defucosylated, expressed in FUT8-knockout CHO-S cells; also called chimeric 28G3
B2: chimeric antibody xi40F6 (antibody, human IgG1, kappa, V domains shown)
VH: QVQLKESGPGLVAPSQSLSITCTVSGFSLTSYGVYWVRQSPGKGLEWLGVVWAGGNTNYNSALMSRLSISKDNSKSQVFLKMNSLQTDDTAMYYCARDRGRLLAMDYWGQGTSVTVSS
VL: B1 VL with I2V, Y9S, T15A, F30L, L91V, A97D, S99F, Y100F, Y102F, G106S
notes: Mouse variable regions on human IgG1/kappa; defucosylated, expressed in FUT8-knockout CHO-S cells; also called chimeric 40F6
B3: chimeric antibody xi22F12 (antibody, human IgG1, kappa, V domains shown)
VH: B2 VH with S40P, V51I, N56S, S70N, A104S
VL: DIVMTQSPSSLSVSAGEKVTMSCRSSQSLLNSGNQKNYLAWYQQKPGQPPKLLIYGASTRESGVPDRFTGSGSGTDFTLTIGSVQAEDLAVYYCQNVHFFPFTFGSGTKLEIKR
notes: Mouse variable regions on human IgG1/kappa; defucosylated, expressed in FUT8-knockout CHO-S cells; also called chimeric 22F12
B4: chimeric antibody xi34G6 (antibody, human IgG1, kappa, V domains shown)
VH: QVQLKESGPDLVAPSQSLSITCTVSGFSLTSYGVHWVRQPPGKGLEWLVVIWSDGSTTYNSALKSRLSISKDNSKSQVFLKMNSLQTDDTAIYYCARHAYYGNSFDYWGQGTTLTVSS
VL: DIVMTQSPSSLTVTAGEKVTMSCKSSQSLLNSGNQKSYLTWYQQKPGQPPKLLIYWASTRESGVPDRFTGSGSGTDFTLTISSVQAEDLAVYYCQNVYIFPLTFGAGTKLELKR
notes: Mouse variable regions on human IgG1/kappa; defucosylated, expressed in FUT8-knockout CHO-S cells; also called chimeric 34G6
B5: chimeric antibody xi10D8 (antibody, human IgG1, kappa, V domains shown)
VH: QIQLAQSGPELKKPGETVKVSCKASGYTFKNYGMNWVKQAPGKGLKWMGWININTGEPRYAEEFKGRIAFSLETSASTAYLLINNLKNEDTATYFCARYGYGNSFPYWGQGTLVTVSA
VL: B4 VL with A15V, K36R, S37N, D76A, I81V, V97D, I99S, F100Y, L112M
notes: Mouse variable regions on human IgG1/kappa; defucosylated, expressed in FUT8-knockout CHO-S cells; also called chimeric 10D8

Legend:
human CLDN18.2 [1] = target: human CLDN18.2 (human); assay: cell-based or functional assay
human CLDN18.2 [2] = target: T1, human CLDN18.2 (human); assay: FACS, KATOIII cells (natural CLDN18.2)
T1 construct: also called claudin18.2
Procedure: (§1) Based on the FACS method, the binding activity of anti-CLDN18.2 humanized antibodies for the cell lines KATOIII (Cell Bank of the Chinese Academy of Sciences) and NUGC-4 (Cell Bank of the Chinese Academy of Sciences) naturally expressing CLDN18.2 was analyzed. […] See Example 3 for the specific method.

human CLDN18.2 [3] = target: T1, human CLDN18.2; assay: cell-based or functional assay; remark: listed apart in the source
human CLDN18.2 [4] = target: T1, human CLDN18.2; assay: cell-based or functional assay; remark: listed apart in the source
human CLDN18.2 [5] = target: T1, human CLDN18.2; assay: cell-based or functional assay; remark: listed apart in the source
human CLDN18.2 [6] = target: T1, human CLDN18.2; assay: FACS, NUGC-4 cells (natural CLDN18.2)
Procedure: (§2) Based on the FACS method, the binding activity of anti-CLDN18.2 antibodies for the cell line U2OS-CLDN18.2 overexpressing CLDN18.2 and the cell lines KATOIII (Cell Bank of the Chinese Academy of Sciences) and NUGC-4 (Cell Bank of the Chinese Academy of Sciences) naturally expressing CLDN18.2 was analyzed.
(§3) The cell concentration was adjusted with PBS, and cells (U2OS-CLDN18.2, KATOIII, or NUGC-4 cells) were added to a 96-well plate at 3×10⁵ cells/well, then the test antibodies at different concentrations were added to each well of the 96-well plate, and the mixture was incubated at 4° C. for 60 min. […] The supernatant was discarded, the cells were washed 3 times with pre-cooled PBS buffer, PE-Goat Anti-Human IgG Fcγ (Jackson immunoresearch, Cat. No. 109-116-170) diluted at 1:200 was added at 100 μL/well, and the mixture was incubated at 4° C. for 30 min. Cells were washed 3 times with pre-cooled PBS buffer and resuspended in 100 μL of PBS buffer, and then the fluorescence signals were detected using a flow cytometer (Sartorius, iQUE3). The binding ability of the anti-CLDN18.2 antibodies for CLDN18.2 was measured by mean fluorescence intensity (MFI) of staining.

human CLDN18.2 [7] = target: T1, human CLDN18.2; assay: FACS, NUGC-4 cells (natural CLDN18.2); remark: listed apart in the source
Procedure: as §1

human CLDN18.2 [8] = target: T1, human CLDN18.2; assay: FACS, U2OS-CLDN18.2 cells
Procedure: as §2, §3

human CLDN18.2 [9] = target: T1, human CLDN18.2; assay: cell-based or functional assay; remark: listed apart in the source
human CLDN18.1 [10] = target: T2, human CLDN18.1 (human, UniProt P56856 1-261); assay: FACS, U2OS-CLDN18.1 cells, antibody at 200 nM
T2 construct: also called claudin18.1
Procedure: (§4) Based on the FACS method, the binding activity of anti-CLDN18.2 antibodies for the cell line U2OS-CLDN18.1 overexpressing CLDN18.1 (SEQ ID NO: 2) was analyzed. The cell concentration was adjusted with PBS, and the U2OS-CLDN18.1 cells were added to a 96-well plate at 3×10⁵ cells/well, then the test antibodies were added to each well of the 96-well plate, the final concentration of the antibody was 200 nM, and the mixture was incubated at 4° C. for 60 min. The supernatant was discarded, the cells were washed 3 times with pre-cooled PBS buffer, PE-Goat Anti-Human IgG Fcγ (Jackson immunoresearch, Cat. No. 109-116-170) diluted at 1:200 was added at 100 μL/well, and the mixture was incubated at 4° C. for 30 min. Cells were washed 3 times with pre-cooled PBS buffer and resuspended in 100 μL of PBS buffer, and then the fluorescence signals were detected using a flow cytometer (Sartorius, iQUE3). The nonspecific binding of the anti-CLDN18.2 antibodies for U2OS-CLDN18.1 cells was measured by mean fluorescence intensity (MFI) of staining. The IgG1 isotype control antibody (prepared in-house, with the heavy and light chain amino acid sequences as set forth in SEQ ID NOs: 67 and 68 in the present disclosure) was used as the control, and 2-fold the IgG1 isotype control antibody was used as the benchmark, thus determining the presence or absence of nonspecific binding.

human CLDN18.2 [11] = target: T1, human CLDN18.2; assay: cell-based or functional assay; remark: listed apart in the source
human CLDN18.1 [12] = target: T2, human CLDN18.1; assay: FACS, U2OS-CLDN18.1 cells; MFI against 2-fold the IgG1 isotype control
Procedure: as §4

human CLDN18.2 [13] = target: T1, human CLDN18.2; assay: FACS, KATOIII cells (natural CLDN18.2); remark: listed apart in the source
Procedure: as §2, §3

human CLDN18.2 [14] = target: T1, human CLDN18.2; assay: cell-based or functional assay; remark: listed apart in the source
human CLDN18.2 [15] = target: T1, human CLDN18.2; assay: FACS, NUGC-4 cells (natural CLDN18.2); remark: listed apart in the source
Procedure: as §2, §3

human CLDN18.2 [16] = target: T1, human CLDN18.2; assay: FACS, KATOIII cells (natural CLDN18.2); remark: listed apart in the source
Procedure: as §1

human CLDN18.2 [17] = target: T1, human CLDN18.2; assay: cell-based or functional assay; remark: listed apart in the source
human CLDN18.2 [18] = target: T1, human CLDN18.2; assay: FACS, U2OS-CLDN18.2 cells; remark: listed apart in the source
Procedure: as §2, §3

human CLDN18.2 [19] = target: T1, human CLDN18.2; assay: FACS, KATOIII cells (natural CLDN18.2); remark: listed apart in the source
Procedure: as §2, §3

human CLDN18.2 [20] = target: T1, human CLDN18.2; assay: FACS, NUGC-4 cells (natural CLDN18.2); remark: listed apart in the source
Procedure: as §1

human CLDN18.2 [21] = target: T1, human CLDN18.2; assay: FACS, NUGC-4 cells (natural CLDN18.2); remark: listed apart in the source
Procedure: as §2, §3

human CLDN18.2 [22] = target: T1, human CLDN18.2; assay: FACS, U2OS-CLDN18.2 cells; remark: listed apart in the source
Procedure: as §2, §3

Binder	ADCC EC50, PBMC effector cells, NUGC-4 target cells (human CLDN18.2 [1])	ADCC Maximum killing (%), PBMC effector cells, NUGC-4 target cells (human CLDN18.2 [1])	CDC EC50, KATOIII target cells (human CLDN18.2 [4])	CDC EC50, U2OS-CLDN18.2 target cells (human CLDN18.2 [4])	EC50 (human CLDN18.2 [6])	EC50 (human CLDN18.2 [8])	MFI (human CLDN18.1 [10])	ADCC EC50, Jurkat-CD16a v158-NFAT-luciferase effector cells, KATOIII target cells (human CLDN18.2 [11])	ADCC EC50, Jurkat-CD16a v158-NFAT-luciferase effector cells, NUGC-4 target cells (human CLDN18.2 [11])	ADCC EC50, Jurkat-CD16a v158-NFAT-luciferase effector cells, U2OS-CLDN18.2 target cells (human CLDN18.2 [11])	binding result (human CLDN18.1 [12])	EC50 (human CLDN18.2 [13])	EC50 (human CLDN18.2 [19])	further results
B1	0.44 nM	43.3%	0.112 nM	1.58 nM	21.2 nM	7.78 nM	7560	0.03 nM	0.121 nM	0.028 nM	no binding (tested: 200 nM)	3.31 nM		ADCC EC50, PBMC effector cells, KATOIII target cells (human CLDN18.2 [1]): 38.4 nM; ADCC Maximum killing (%), PBMC effector cells, KATOIII target cells (human CLDN18.2 [1]): 76.8%; EC50 (human CLDN18.2 [2]): 6.63 nM; ADCC EC50, PBMC effector cells, KATOIII target cells (human CLDN18.2 [3]): 0.82 nM; ADCC EC50, PBMC effector cells, NIH-3T3-CLDN18.2 target cells (human CLDN18.2 [3]): 0.54 nM; ADCC EC50, PBMC effector cells, NUGC-4 target cells (human CLDN18.2 [3]): 3.26 nM; ADCC Maximum killing (%), PBMC effector cells, KATOIII target cells (human CLDN18.2 [3]): 29.9%; ADCC Maximum killing (%), PBMC effector cells, NIH-3T3-CLDN18.2 target cells (human CLDN18.2 [3]): 47%; ADCC Maximum killing (%), PBMC effector cells, NUGC-4 target cells (human CLDN18.2 [3]): 22.5%; ADCC EC50, Jurkat-CD16a v158-NFAT-luciferase effector cells, KATOIII target cells (human CLDN18.2 [5]): 0.043 nM; ADCC EC50, Jurkat-CD16a v158-NFAT-luciferase effector cells, U2OS-CLDN18.2 target cells (human CLDN18.2 [5]): 0.018 nM; EC50 (human CLDN18.2 [7]): 44.1 nM; CDC EC50, NIH-3T3-CLDN18.2 target cells (human CLDN18.2 [9]): 0.27 nM
B2	0.8 nM	45.2%	0.127 nM	1.07 nM			7070	0.03 nM	0.147 nM	0.032 nM	no binding (tested: 200 nM)		5.97 nM	CDC EC50, NIH-3T3-CLDN18.2 target cells (human CLDN18.2 [14]): 0.29 nM; EC50 (human CLDN18.2 [15]): 12.5 nM; EC50 (human CLDN18.2 [16]): 7.02 nM; ADCC EC50, Jurkat-CD16a v158-NFAT-luciferase effector cells, NIH-3T3-CLDN18.2 target cells (human CLDN18.2 [17]): 0.014 nM; ADCC EC50, Jurkat-CD16a v158-NFAT-luciferase effector cells, NUGC-4 target cells (human CLDN18.2 [17]): ~0.014 nM; EC50 (human CLDN18.2 [18]): 4.47 nM; EC50 (human CLDN18.2 [20]): 12.5 nM
B3	0.68 nM	46.1%	0.103 nM	2.09 nM	20 nM	25.1 nM	8940	0.02 nM	0.083 nM	0.02 nM	no binding (tested: 200 nM)	3.68 nM		
B4	0.62 nM	40.9%	0.302 nM	1.77 nM			7630	0.064 nM	0.214 nM	0.06 nM	no binding (tested: 200 nM)		1.79 nM	EC50 (human CLDN18.2 [21]): 19.9 nM; EC50 (human CLDN18.2 [22]): 4.28 nM
B5				11.4 nM	512 nM	19.5 nM	8030				no binding (tested: 200 nM)	13.9 nM		
